The values below come from patent publication US7838231 (REGENTS OF THE UNIVERSITY OF MICHIGAN, dated 2010).

Assay [1] deals with T1, RPGR (non-ORF15 containing isoform), human full length, yeast two-hybrid prey (human, UniProt Q92834-2 1-815).
T1 construct: also called non-ORF15 containing RPGR isoform
T1 sequence (looked up): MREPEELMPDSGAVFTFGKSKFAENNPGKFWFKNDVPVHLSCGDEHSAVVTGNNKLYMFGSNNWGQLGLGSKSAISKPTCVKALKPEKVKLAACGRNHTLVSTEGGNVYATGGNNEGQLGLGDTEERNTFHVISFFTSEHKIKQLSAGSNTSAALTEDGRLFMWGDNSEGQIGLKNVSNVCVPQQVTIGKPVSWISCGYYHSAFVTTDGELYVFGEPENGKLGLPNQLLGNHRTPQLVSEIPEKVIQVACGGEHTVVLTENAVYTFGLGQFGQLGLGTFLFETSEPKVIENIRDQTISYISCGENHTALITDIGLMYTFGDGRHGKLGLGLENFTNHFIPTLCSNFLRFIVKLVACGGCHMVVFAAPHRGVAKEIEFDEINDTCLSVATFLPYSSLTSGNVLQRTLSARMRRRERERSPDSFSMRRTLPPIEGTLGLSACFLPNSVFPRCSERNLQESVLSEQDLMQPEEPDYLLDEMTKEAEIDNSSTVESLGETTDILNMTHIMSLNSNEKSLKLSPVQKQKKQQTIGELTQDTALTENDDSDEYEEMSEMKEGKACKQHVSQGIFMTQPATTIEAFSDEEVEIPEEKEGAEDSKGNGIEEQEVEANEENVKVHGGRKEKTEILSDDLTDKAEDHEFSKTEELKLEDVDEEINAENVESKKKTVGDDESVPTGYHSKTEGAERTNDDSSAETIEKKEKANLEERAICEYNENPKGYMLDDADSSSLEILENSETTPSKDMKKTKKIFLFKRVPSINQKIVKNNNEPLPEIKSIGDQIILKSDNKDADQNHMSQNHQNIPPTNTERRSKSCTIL
The assay can be described thus: direct yeast two-hybrid assay.

For assay [2], the target named is T2, BBS2, human full length, yeast two-hybrid prey (human, UniProt Q9BXC9 1-721).
T2 sequence (looked up): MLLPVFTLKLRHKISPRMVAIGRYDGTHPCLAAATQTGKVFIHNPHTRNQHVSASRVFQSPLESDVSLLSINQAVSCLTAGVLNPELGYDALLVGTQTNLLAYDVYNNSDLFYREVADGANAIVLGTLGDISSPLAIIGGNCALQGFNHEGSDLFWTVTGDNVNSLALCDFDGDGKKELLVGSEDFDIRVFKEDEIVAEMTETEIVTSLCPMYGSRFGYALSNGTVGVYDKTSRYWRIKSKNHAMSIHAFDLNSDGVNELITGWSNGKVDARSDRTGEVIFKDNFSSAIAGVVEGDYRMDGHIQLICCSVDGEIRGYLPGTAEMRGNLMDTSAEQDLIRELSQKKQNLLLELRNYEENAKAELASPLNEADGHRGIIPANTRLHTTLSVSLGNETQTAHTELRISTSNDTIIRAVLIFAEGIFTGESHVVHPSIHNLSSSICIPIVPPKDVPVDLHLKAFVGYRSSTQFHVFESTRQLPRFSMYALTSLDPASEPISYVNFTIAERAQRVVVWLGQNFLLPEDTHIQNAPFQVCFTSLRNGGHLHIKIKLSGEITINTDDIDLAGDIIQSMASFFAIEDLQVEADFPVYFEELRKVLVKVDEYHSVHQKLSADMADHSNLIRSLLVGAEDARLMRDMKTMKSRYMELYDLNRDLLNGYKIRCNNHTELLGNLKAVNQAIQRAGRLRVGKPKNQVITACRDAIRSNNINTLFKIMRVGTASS
The assay can be described thus: direct yeast two-hybrid assay.

Assay [3] deals with calmodulin (CALM2), human full length, yeast two-hybrid fusion (human, UniProt P0DP24 1-149). The assay can be described thus: yeast two-hybrid screen of a human fetal brain expression library, NPHP5 as bait.

B1: full-length human nephrocystin-5 (NPHP5), yeast two-hybrid fusion (other, not shown: small tags and cut ends)
chain: MKPTGTDPRILSIAAEVAKSPEQNVPVILLKLKEIINITPLGSSELKKIKQDIYCYDLIQYCLLVLSQDYSRIQGGWTTISQLTQILSHCCVGLEPGEDAEEFYNELLPSAAENFLVLGRQLQTCFINAAKAEEKDELLHFFQIVTDSLFWLLGGHVELIQNVLQSDHFLHLLQADNVQIGSAVMMMLQNILQINSGDLLRIGRKALYSILDEVIFKLFSTPSPVIRSTATKLLLLMAESHQEILILLRQSTCYKGLRRLLSKQETGTEFSQELRQLVGLLSPMVYQEVEEQKLHQAACLIQAYWKGFQTRKRLKKLPSAVIALQRSFRSKRSKMLLEINRQKEEEDLKLQLQLQRQRAMRLSRELQLSMLEIVHPGQVEKHYREMEEKSALNIQKHWRGYRERKNFHQQRQSLIEYKAAVTLQRAALKFLAKCRKKKKLFAPWRGLQELTDARRVELKKRVDDYVRRHLGSPMSDVVSRELHAQAQERLQHYFMGRALEERAQQHREALIAQISTNVEQLMKAPSLKEAEGKEPELFLSRSRPVAAKAKQAHLTTLKHIQAPWWKKLGEESGDEIDVPKDELSIELENLFIGGTKPP
notes: Full-length NPHP5 cDNA (598 amino acid residues) fused to a GAL4 domain; also called KIAA0036
Regarding B1, the binding result in assay [1] is “no binding”; in assay [2], “no binding”; in assay [3], “binds”.
